Experimental data reported in US20100160556A1, “GLP-1 Fusion Peptides Conjugated to Polymer(s), Their Production and Use” (priority 2007, published 2010).

Test system: type II diabetic mice (C57BL/Ks-Lepr db/db)
Assay: In vivo bioactivity in type II diabetic mice
Details: 5 μg peptide s.c. twice a day, day 2, 4, 7, 10
Description: 11-week-old type II diabetic mice (C57BL/Ks-Lepr^db/db, Harlan) were treated with 5 μg peptide by subcutaneous injection twice a day at 9 a.m. and 5 p.m. (n=5 per group). Blood glucose was measured before (day 0) and after treatment with GLP^CM peptides (Day 2, 4, 7, 10) at 10 a.m. after an overnight fastening period. Data were presented in relation to blood glucose levels measured at day 0.
Best results were obtained with recombinant SEQ ID NO:6 (CM1) and synthetic SEQ ID NO:8 (CM3). In FIG. 9 (y-axis) the relative effect of the treatment is shown. Blood glucose at day ═O was set to 1. Untreated animals undergo continuous increase in blood glucose level over time, whereas animals treated with inventive peptides display grosso modo a continuous decrease of the blood glucose level over time.

B1: GLP-1(7-37)—IP2-RR-GLP2 (peptide)
chain: HAEGTFTSDVSSYLEGQAAKEFIAWLVKGRGRRDFPEEVAIAEELGRRHADGSFSDEMSTILDNLATRDFINWLIQTKITDKK
notes: 83 aa fusion peptide
With B1 the “anti-hyperglycemia effect (blood glucose relative to day 0)” value was “anti-hyperglycemia effect”.
